Experimental data as given in the supplement of paper PMC6757056.
± gives the standard deviation of the averaged measurements.

B1: library; a variant is named by its letters at N, in order (parent)
chain: GCUGUCACCGGUGUAUUACCCUAGUGGUCGACCGGUCUGAUGAGUCUNNNNNNAGACGAAACAGC

Tests used:
hypoxanthine [1] = variants of: B1; experiment: normalized RNA/DNA level with ligand (relative to sTRSVctl = 100) (log10 (% of sTRSVctl)); ligand: hypoxanthine (xanthine aptamer); higher = less ribozyme self-cleavage, higher mRNA level; details: ligand concentration (+) RNA-Seq: 5 mM, HEK293T, reporter: mCherry (pCS4076), ligand present: yes
Procedure, shortened: (§1)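 HEK293T cells were transfected with library plasmids carrying ribozyme switches linked to an mCherry reporter, or an eGFP reporter in some ligand experiments, at 4 µg per well of a 6-well plate, with any ligand added 1 h beforehand. After 72 h, total RNA was extracted with EDTA, reverse-transcribed, amplified, barcoded and sequenced. RNA level was defined as RNA reads over DNA reads, normalized to a spiked-in non-cleaving sequence or to the top-ranked sequences. That value was multiplied by 100 and converted to log10, the top set was 25 sequences, and only sequences with ≥100 DNA reads were retained.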

hypoxanthine [2] = variants of: B1; experiment: normalized RNA/DNA level without ligand (relative to sTRSVctl = 100) (log10 (% of sTRSVctl)); ligand: hypoxanthine (xanthine aptamer); higher = less ribozyme self-cleavage, higher mRNA level; details: HEK293T, reporter: mCherry (pCS4076), ligand present: no
Procedure, shortened: as §1

hypoxanthine [3] = variants of: B1; experiment: FACS-Seq fitted mean relative fluorescence mCherry/BFP without ligand (log10 relative fluorescence); ligand: hypoxanthine (xanthine aptamer); higher = higher reporter protein expression; details: HEK293T, ligand present: no
Procedure, shortened: (§2)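 Fluorescence is reported as a normalized fitted mean of sorted-bin read counts. Lentivirally transduced HEK293T libraries (mCherry ribozyme-switch reporter, EF1α-BFP marker) were enriched, treated with or without ligand for 48 h, and sorted into 6 mCherry/BFP bins for MiSeq sequencing of PCR-amplified genomic DNA. The normal fit was on log10(mCherry/BFP), scaled to five spiked-in control ribozymes.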

hypoxanthine [4] = variants of: B1; experiment: FACS-Seq fitted mean relative fluorescence mCherry/BFP with ligand (log10 relative fluorescence); ligand: hypoxanthine (xanthine aptamer); ligand concentration (+) FACS-Seq: 5 mM; higher = higher reporter protein expression; details: HEK293T, ligand present: yes
Procedure, shortened: as §2

Variant | normalized RNA/DNA level with ligand (log10) (hypoxanthine [1]) | normalized RNA/DNA level without ligand (log10) (hypoxanthine [2]) | FACS-Seq fitted mean (log10) (hypoxanthine [3]) | FACS-Seq fitted mean (log10) (hypoxanthine [4])
AUCGUG | 1.82 ± 0.047 | 1.4 ± 0.076 |  | 
GGUUGU | 1.94 ± 0.065 | 1.76 ± 0.035 |  | 
CUAAUA | 1.87 ± 0.029 | 1.79 ± 0.026 |  | 
GGUCCG | 2.01 ± 0.061 | 1.829 ± 0.018 |  | 
CAUUAG | 1.941 ± 0.019 | 1.73 ± 0.054 |  | 
UGUUAA | 1.94 ± 0.029 | 1.841 ± 0.014 |  | 
UCAGCC | 2.04 ± 0.02 | 1.997 ± 0.0026 |  | 
GCAUGU | 1.9 ± 0.03 | 1.68 ± 0.043 |  | 
CUGGUC | 1.96 ± 0.026 | 1.93 ± 0.023 |  | 
UGCCGA | 1.94 ± 0.024 | 1.678 ± 0.014 |  | 
AAAUCU | 1.94 ± 0.089 | 1.9 ± 0.039 |  | 
ACACAU | 1.92 ± 0.03 | 1.723 ± 0.0032 |  | 
UGGAUU | 1.97 ± 0.021 | 1.824 ± 0.0038 |  | 
CGUCGC | 1.9 ± 0.11 | 1.909 ± 0.01 |  | 
AAAGAC | 1.9 ± 0.039 | 1.82 ± 0.019 |  | 
GACGGG | 1.885 ± 0.0056 | 1.41 ± 0.039 |  | 
CCCUUA | 2.002 ± 0.019 | 1.905 ± 0.014 | 0.315 ± 0.0096 | 0.279 ± 0.083
UGGUAA | 1.902 ± 0.013 | 1.712 ± 0.011 |  | 
UCUGCU | 1.968 ± 0.0085 | 1.924 ± 0.0035 |  | 

Variant | normalized RNA/DNA level with ligand (log10) (hypoxanthine [1]) | normalized RNA/DNA level without ligand (log10) (hypoxanthine [2]) | FACS-Seq fitted mean (log10) (hypoxanthine [3]) | FACS-Seq fitted mean (log10) (hypoxanthine [4])
CGGACU | 1.95 ± 0.042 | 1.79 ± 0.024 |  | 
CACGCC | 1.99 ± 0.047 | 1.839 ± 0.015 |  | 
GCAGCU | 2.014 ± 0.019 | 1.95 ± 0.038 |  | 
GUAGAC | 1.89 ± 0.041 | 1.69 ± 0.025 |  | 
UACUAU | 1.89 ± 0.027 | 1.83 ± 0.05 |  | 
UUAGCU | 1.97 ± 0.021 | 1.89 ± 0.023 |  | 
UUAGCG | 1.906 ± 0.018 | 1.8 ± 0.038 |  | 
GUCCUC | 1.9 ± 0.016 | 1.93 ± 0.057 |  | 
AUCUUU | 1.99 ± 0.024 | 1.91 ± 0.046 |  | 
CCGUAC | 1.92 ± 0.047 | 1.66 ± 0.037 |  | 
GUGAUC | 1.93 ± 0.036 | 1.54 ± 0.13 |  | 
UACGCC | 2 ± 0.079 | 1.82 ± 0.036 |  | 
GGAGAU | 1.93 ± 0.038 | 1.72 ± 0.024 |  | 
UUGACC | 1.96 ± 0.049 | 1.987 ± 0.011 |  | 
GUUUUC | 1.92 ± 0.025 | 1.952 ± 0.01 | -0.0599 ± 0.0079 | -0.0383 ± 0.14
CAGGCA | 1.912 ± 0.008 | 1.68 ± 0.069 |  | 
GACAUA | 1.91 ± 0.027 | 1.79 ± 0.027 | 0.382 ± 0.011 | 0.373 ± 0.037
GACAAG | 1.83 ± 0.043 | 1.36 ± 0.018 |  | 
CUCGCA | 1.94 ± 0.062 | 1.847 ± 0.002 |  | 

Variant | normalized RNA/DNA level with ligand (log10) (hypoxanthine [1]) | normalized RNA/DNA level without ligand (log10) (hypoxanthine [2]) | FACS-Seq fitted mean (log10) (hypoxanthine [3]) | FACS-Seq fitted mean (log10) (hypoxanthine [4])
AGAAAG | 1.82 ± 0.039 | 1.41 ± 0.029 |  | 
UUCGGC | 1.95 ± 0.098 | 1.89 ± 0.025 |  | 
GUUCCG | 1.94 ± 0.028 | 1.72 ± 0.048 |  | 
AUGGCC | 1.959 ± 0.015 | 1.883 ± 0.014 |  | 
AGCUAG | 1.83 ± 0.066 | 1.508 ± 0.0088 |  | 
GUAACC | 1.9577 ± 0.00079 | 1.88 ± 0.089 |  | 
UGCGGU | 1.905 ± 0.01 | 1.742 ± 0.0036 |  | 
UGAUAC | 1.926 ± 0.0041 | 1.848 ± 0.011 |  | 
UGGUUG | 1.962 ± 0.011 | 1.79 ± 0.03 |  | 
UUAGAG | 1.832 ± 0.0063 | 1.556 ± 0.011 |  | 
UCAUCU | 2.026 ± 0.011 | 1.99 ± 0.059 |  | 
GGCGCU | 1.973 ± 0.003 | 2.03 ± 0.022 |  | 
GCGACU | 1.92 ± 0.026 | 1.755 ± 0.013 |  | 
GGCCAA | 1.934 ± 0.015 | 1.87 ± 0.022 |  | 
CCGCCC | 2.025 ± 0.013 | 1.99 ± 0.044 |  | 
GCCACC | 1.905 ± 0.011 | 1.834 ± 0.0019 |  | 
UUGGAU | 2.004 ± 0.0096 | 1.8482 ± 4.2e-06 |  | 
UGUCUG | 1.93 ± 0.037 | 1.77 ± 0.03 |  | 
